# Measurements as given in article PMC4278678 (Biochemistry, 2014).
# Like-named read-outs stand apart in the source and are kept apart here.
# Tests used:
# [1] = biological target: the molecule itself; assay: cross-linking
# [2] = biological target: the molecule itself; assay: cross-linking; remark: listed apart in the source
Protein,stoichiometry N [1],stoichiometry N [2]
"FLAG-tagged 7xAla/L107C NEMO (natural protein, human, UniProt Q9Y6K9 1-419, looked up) MNRHLWKSQLAEMVQPSGGPAADQDVLGEESPLGKPAMLHLPSEQGAPETLQRALEENQELRDAIRQSNQILRERAEELLHFQASQREEKEFLMAKFQEARKLVERCGLEKLDLKRQKEQALREVEHLKRAQQQMAEDKASVKAQVTSLLGELQESQSRLEAATKEAQALEGRARAASEQARQLESEREALQQQHSVQVDQLRMQGQSVEAALRMERQAASEEKRKLAQLQVAYHQLFQEYDNHIKSSVVGSERKRGMQLEDLKQQLQQAEEALVAKQEVIDKLKEEAEQHKIVMETVPVLKAQADIYKADFQAERQAREKLAEKKELLQEQLEQLQREYSKLKASAQESARIEDMRKRHVEVSQAPLPPAPAYLSSPLALPSQRRSPPEEPPDFCCPKCQYQAPDMDTLQIHVMECIE",2,–
"9xHis-SUMO-NEMO(1–120)(des3C/C54), oxidised covalent dimer (domain or fragment, human, UniProt Q9Y6K9 1-120, looked up, interchain disulfide bond at Cys54) MNRHLWKSQLAEMVQPSGGPAADQDVLGEESPLGKPAMLHLPSEQGAPETLQRCLEENQELRDAIRQSNQILRERAEELLHFQASQREEKEFLMAKFQEARKLVERLGLEKLDLKRQKEQ",–,2
"9xHis-SUMO-NEMO(1–120)(des4C/L107C), covalent dimer (domain or fragment, human, UniProt Q9Y6K9 1-120, looked up, interchain disulfide bond at Cys107) MNRHLWKSQLAEMVQPSGGPAADQDVLGEESPLGKPAMLHLPSEQGAPETLQRALEENQELRDAIRQSNQILRERAEELLHFQASQREEKEFLMAKFQEARKLVERCGLEKLDLKRQKEQ",–,2
"9xHis-SUMO-NEMO(1–120)(des3C/C54/L107C), covalent dimer (domain or fragment, human, UniProt Q9Y6K9 1-120, looked up, interchain disulfide bonds at Cys54 and Cys107) MNRHLWKSQLAEMVQPSGGPAADQDVLGEESPLGKPAMLHLPSEQGAPETLQRCLEENQELRDAIRQSNQILRERAEELLHFQASQREEKEFLMAKFQEARKLVERCGLEKLDLKRQKEQ",–,2
"9xHis-SUMO-NEMO(44–111)(des2C/C54), covalent dimer (domain or fragment, human, UniProt Q9Y6K9 44-111, looked up, also: covalent dimer via interchain disulfide at Cys54) {9xHis‑SUMO}-EQGAPETLQRCLEENQELRDAIRQSNQILRERAEELLHFQASQREEKEFLMAKFQEARKLVERLGLEK",–,2
"9xHis-SUMO-NEMO(44–111)(des3C/L107C), covalent dimer (domain or fragment, human, UniProt Q9Y6K9 44-111, looked up, also: covalent dimer via interchain disulfide at Cys107) {9xHis‑SUMO}-EQGAPETLQRALEENQELRDAIRQSNQILRERAEELLHFQASQREEKEFLMAKFQEARKLVERCGLEK",–,2
"9xHis-SUMO-NEMO(44–111)(des2C/C54/L107C), covalent dimer (domain or fragment, human, UniProt Q9Y6K9 44-111, looked up, also: covalent dimer via interchain disulfides at Cys54 and Cys107) {9xHis‑SUMO}-EQGAPETLQRCLEENQELRDAIRQSNQILRERAEELLHFQASQREEKEFLMAKFQEARKLVERCGLEK",–,2
